Measured values from publication PMC2946933.

Molecular target: Hfq K56A K56A (UniProt P0A6X3)
Test: SPR
Details: EMSA: 50 mM Tris-HCl pH 7.5, 100 mM KCl, 10 mM MgCl2, room temperature, SPR: same buffer, 25 C, Tb footprinting: 50 mM Tris-HCl pH 8.0, 100 mM NaCl

GCAGCGUUACAUUCCCAUCCACUGGGGAAAGACGCGGCGCUGAUUGGUGAAGUGGUGGAACGUAAAGGUGUUCGUCUUGCCGGUCUGUAUGGCGUGAAACGAACCCUCGAUUUACCACACGCCGAACCGCUUCCGCGUAUAUGCUAAUAAAAUUCUAAAUCUCCUAUAGUUAGUCAAUGACCUUUUGCACCGCUUUGCGGUGCUUUCCUGGAAGAACAAAAUGUCAUAUACACCGAUGAGUGAUCUCGGACAACAAGGGUUGUUCGACAUCACUCGGACAAAUAUUGGAUCCGCUCGG [fhlA220 mRNA]
Kd: 3 nM
